Measurements as given in paper PMC5700927, “Heme enables proper positioning of Drosha and DGCR8 on primary microRNAs” (Nature Communications, 2017).

Tests used:
[1] = target: the molecule itself; assay: AUC; sedimentation velocity of isolated DGCR8; 0.1-1 mg/mL; 20 mM Tris pH 8.0, 500 mM NaCl, 1 mM TCEP; 142,000 x g, about 16 h; wild-type sample heme-saturated
[2] = target: the molecule itself; assay: SEC-MALS; isolated DGCR8; Superdex 200 Increase 10/300; 20 mM Tris pH 8.0, 750 mM NaCl, 1 mM TCEP, 10% glycerol; wild-type sample heme-deficient (Apo); heme-saturated samples inconclusive and not reported
[3] = target: the molecule itself; assay: AUC; sedimentation velocity of purified co-expressed Drosha/DGCR8 complex; 0.1-1 mg/mL; 20 mM Tris pH 8.0, 500 mM NaCl, 1 mM TCEP; 72,400 x g, about 16 h
[4] = target: the molecule itself; assay: SEC-MALS; purified co-expressed Drosha/DGCR8 complex; Superdex 200 Increase 10/300; 20 mM Tris pH 8.0, 750 mM NaCl, 1 mM TCEP, 10% glycerol
[5] = target: T1, Drosha (residues 353-1372) (human, UniProt Q9NRR4 353-1372); assay: as above; details: both partners purified
T1 construct: Drosha (RNase III), human, residues 353-1372 (CED, two RIIID domains, dsRBD); also called the Drosha chain of MP^Heme, MP^Apo, MP^C352S, MP^ΔHBR and MP^CTT
T1 sequence (looked up): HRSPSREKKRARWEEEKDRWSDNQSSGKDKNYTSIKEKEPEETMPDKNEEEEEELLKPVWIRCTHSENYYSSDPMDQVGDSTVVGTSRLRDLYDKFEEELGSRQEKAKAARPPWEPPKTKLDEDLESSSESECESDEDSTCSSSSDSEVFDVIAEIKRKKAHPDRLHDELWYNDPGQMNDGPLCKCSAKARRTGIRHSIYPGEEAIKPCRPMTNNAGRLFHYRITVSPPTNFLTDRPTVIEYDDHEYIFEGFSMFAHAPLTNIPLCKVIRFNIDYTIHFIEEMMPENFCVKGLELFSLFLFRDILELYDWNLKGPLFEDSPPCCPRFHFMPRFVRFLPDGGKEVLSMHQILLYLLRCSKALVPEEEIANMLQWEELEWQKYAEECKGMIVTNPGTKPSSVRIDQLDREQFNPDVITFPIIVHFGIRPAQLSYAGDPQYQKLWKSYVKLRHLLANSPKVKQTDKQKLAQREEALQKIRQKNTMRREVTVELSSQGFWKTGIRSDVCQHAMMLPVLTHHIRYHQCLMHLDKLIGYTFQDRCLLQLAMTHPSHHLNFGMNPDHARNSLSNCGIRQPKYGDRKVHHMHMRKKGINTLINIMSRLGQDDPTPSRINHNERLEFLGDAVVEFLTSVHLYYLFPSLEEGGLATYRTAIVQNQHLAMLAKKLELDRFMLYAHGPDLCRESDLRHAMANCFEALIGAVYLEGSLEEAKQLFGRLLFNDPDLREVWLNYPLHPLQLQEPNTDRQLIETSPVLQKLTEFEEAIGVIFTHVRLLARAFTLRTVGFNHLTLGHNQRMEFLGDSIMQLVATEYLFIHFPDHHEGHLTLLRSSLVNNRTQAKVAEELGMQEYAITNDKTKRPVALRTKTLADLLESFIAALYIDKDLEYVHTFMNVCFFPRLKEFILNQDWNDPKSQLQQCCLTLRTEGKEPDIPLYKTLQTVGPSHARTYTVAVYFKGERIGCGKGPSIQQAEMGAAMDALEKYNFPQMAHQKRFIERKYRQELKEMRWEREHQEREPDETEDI

B1: DGCR8 (residues 223-751), isolated, wild type (domain or fragment, human, UniProt Q8WYQ5 223-751, looked up)
chain: AIVQRDRVDEEALNFPYEDDFDNDVDALLEEGLCAPKKRRTEEKYGGDSDHPSDGETSVQPMMTKIKTVLKSRGRPPTEPLPDGWIMTFHNSGVPVYLHRESRVVTWSRPYFLGTGSIRKHDPPLSSIPCLHYKKMKDNEEREQSSDLTPSGDVSPVKPLSRSAELEFPLDEPDSMGADPGPPDEKDPLGAEAAPGALGQVKAKVEVCKDESVDLEEFRSYLEKRFDFEQVTVKKFRTWAERRQFNREMKRKQAESERPILPANQKLITLSVQDAPTKKEFVINPNGKSEVCILHEYMQRVLKVRPVYNFFECENPSEPFGASVTIDGVTYGSGTASSKKLAKNKAARATLEILIPDFVKQTSEEKPKDSEELEYFNHISIEDSRVYELTSKAGLLSPYQILHECLKRNHGMGDTSIKFEVVPGKNQKSEYVMACGKHTVRGWCKNKRVGKQLASQKILQLLHPHVKNWGSLLRMYGRESSKMVKQETSDKSVIELQQYAKKNKPNLHILSKLQEEMKRLAEEREETRK
notes: DGCR8, human, residues 223-751 (HBR, two dsRBDs, C-terminal tail); also called DGCR8^Heme; DGCR8^Apo; source: E. coli BL21 (DE3) Rosetta, pET21, purified (Ni-NTA, cation exchange, size exclusion); 5 uM hemin Cl in the media for heme-saturated protein
stoichiometry N [1]: 2
stoichiometry N [2]: 2

B2: DGCR8 (residues 223-751), wild type, co-expressed with Drosha (domain or fragment, human, UniProt Q8WYQ5 223-751, looked up)
chain: AIVQRDRVDEEALNFPYEDDFDNDVDALLEEGLCAPKKRRTEEKYGGDSDHPSDGETSVQPMMTKIKTVLKSRGRPPTEPLPDGWIMTFHNSGVPVYLHRESRVVTWSRPYFLGTGSIRKHDPPLSSIPCLHYKKMKDNEEREQSSDLTPSGDVSPVKPLSRSAELEFPLDEPDSMGADPGPPDEKDPLGAEAAPGALGQVKAKVEVCKDESVDLEEFRSYLEKRFDFEQVTVKKFRTWAERRQFNREMKRKQAESERPILPANQKLITLSVQDAPTKKEFVINPNGKSEVCILHEYMQRVLKVRPVYNFFECENPSEPFGASVTIDGVTYGSGTASSKKLAKNKAARATLEILIPDFVKQTSEEKPKDSEELEYFNHISIEDSRVYELTSKAGLLSPYQILHECLKRNHGMGDTSIKFEVVPGKNQKSEYVMACGKHTVRGWCKNKRVGKQLASQKILQLLHPHVKNWGSLLRMYGRESSKMVKQETSDKSVIELQQYAKKNKPNLHILSKLQEEMKRLAEEREETRK
notes: DGCR8, human, residues 223-751; Two copies per Drosha in the complex (heterotrimer); Heme-saturated in MP^Heme, heme-deficient in MP^Apo; also called DGCR8^Heme; DGCR8^Apo; source: MP^Apo separated from MP^Heme by repeated ion exchange
stoichiometry N [3]: 2

B3: DGCR8 (residues 223-751) C352S, isolated (domain or fragment, human, UniProt Q8WYQ5 223-751, looked up)
chain: AIVQRDRVDEEALNFPYEDDFDNDVDALLEEGLCAPKKRRTEEKYGGDSDHPSDGETSVQPMMTKIKTVLKSRGRPPTEPLPDGWIMTFHNSGVPVYLHRESRVVTWSRPYFLGTGSIRKHDPPLSSIPSLHYKKMKDNEEREQSSDLTPSGDVSPVKPLSRSAELEFPLDEPDSMGADPGPPDEKDPLGAEAAPGALGQVKAKVEVCKDESVDLEEFRSYLEKRFDFEQVTVKKFRTWAERRQFNREMKRKQAESERPILPANQKLITLSVQDAPTKKEFVINPNGKSEVCILHEYMQRVLKVRPVYNFFECENPSEPFGASVTIDGVTYGSGTASSKKLAKNKAARATLEILIPDFVKQTSEEKPKDSEELEYFNHISIEDSRVYELTSKAGLLSPYQILHECLKRNHGMGDTSIKFEVVPGKNQKSEYVMACGKHTVRGWCKNKRVGKQLASQKILQLLHPHVKNWGSLLRMYGRESSKMVKQETSDKSVIELQQYAKKNKPNLHILSKLQEEMKRLAEEREETRK
notes: also called DGCR8^C352S; source: E. coli BL21 (DE3) Rosetta, pET21, purified (Ni-NTA, cation exchange, size exclusion)
stoichiometry N [1]: 2
stoichiometry N [2]: 2

B4: DGCR8 (residues 223-751) C352S, co-expressed with Drosha (domain or fragment, human, UniProt Q8WYQ5 223-751, looked up)
chain: AIVQRDRVDEEALNFPYEDDFDNDVDALLEEGLCAPKKRRTEEKYGGDSDHPSDGETSVQPMMTKIKTVLKSRGRPPTEPLPDGWIMTFHNSGVPVYLHRESRVVTWSRPYFLGTGSIRKHDPPLSSIPSLHYKKMKDNEEREQSSDLTPSGDVSPVKPLSRSAELEFPLDEPDSMGADPGPPDEKDPLGAEAAPGALGQVKAKVEVCKDESVDLEEFRSYLEKRFDFEQVTVKKFRTWAERRQFNREMKRKQAESERPILPANQKLITLSVQDAPTKKEFVINPNGKSEVCILHEYMQRVLKVRPVYNFFECENPSEPFGASVTIDGVTYGSGTASSKKLAKNKAARATLEILIPDFVKQTSEEKPKDSEELEYFNHISIEDSRVYELTSKAGLLSPYQILHECLKRNHGMGDTSIKFEVVPGKNQKSEYVMACGKHTVRGWCKNKRVGKQLASQKILQLLHPHVKNWGSLLRMYGRESSKMVKQETSDKSVIELQQYAKKNKPNLHILSKLQEEMKRLAEEREETRK
notes: also called DGCR8^C352S; the DGCR8 chain of MP^C352S
stoichiometry N [4]: 2
stoichiometry N [3]: 2

B5: DGCR8^ΔHBR (residues 489-751), co-expressed with Drosha (domain or fragment, human, UniProt Q8WYQ5 489-751, looked up)
chain: LITLSVQDAPTKKEFVINPNGKSEVCILHEYMQRVLKVRPVYNFFECENPSEPFGASVTIDGVTYGSGTASSKKLAKNKAARATLEILIPDFVKQTSEEKPKDSEELEYFNHISIEDSRVYELTSKAGLLSPYQILHECLKRNHGMGDTSIKFEVVPGKNQKSEYVMACGKHTVRGWCKNKRVGKQLASQKILQLLHPHVKNWGSLLRMYGRESSKMVKQETSDKSVIELQQYAKKNKPNLHILSKLQEEMKRLAEEREETRK
notes: DGCR8, human, residues 489-751 (tandem dsRBDs and C-terminal tail, no HBR); One copy per Drosha in MP^ΔHBR; also called DGCR8 lacking the HBR; the DGCR8 chain of MP^ΔHBR
stoichiometry N [5]: 1
